Measurements as given in publication PMC6224390.

Target: BG505 SOSIP trimer (HIV-1 (BG505)) (UniProt Q2N0S6)
Assay: SEC-MALS

“BG505 SOSIP trimer (from UniProt Q2N0S6 1-860; Q2N0S6 1-860) (complex)” gave a stoichiometry N of 3.
